US20220290167

Target: T1, recombinant B. taurus beta casein with HA tag, 6 histidine tag and HDEL peptide, produced by pMOZ702 in N. benthamiana leaf
T1 chain: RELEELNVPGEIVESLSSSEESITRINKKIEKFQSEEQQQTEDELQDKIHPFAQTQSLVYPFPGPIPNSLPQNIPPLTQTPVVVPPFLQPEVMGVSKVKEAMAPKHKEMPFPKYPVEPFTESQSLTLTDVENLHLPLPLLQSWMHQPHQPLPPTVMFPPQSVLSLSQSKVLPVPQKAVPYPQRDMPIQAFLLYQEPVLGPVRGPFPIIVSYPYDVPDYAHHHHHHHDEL

B1: recombinant H. sapiens Fam20C expressed from pMOZ11 (protein)
chain: LDLLPRLERRGARPSGEPGCSCAQPAAEVAAPGWAQVRGRPGEPPAASSAAGDAGWPNKHTLRILQDFSSDPSSNLSSHSLEKLPPAAEPAERALRGRDPGALRPHDPAHRPLLRDPGPRRSESPPGPGGDASLLARLFEHPLYRVAVPPLTEEDVLFNVNSDTRLSPKAAENPDWPHAGAEGAEFLSPGEAAVDSYPNWLKFHIGINRYELYSRHNPAIEALLHDLSSQRITSVAMKSGGTQLKLIMTFQNYGQALFKPMKQTREQETPPDFFYFSDYERHNAEIAAFHLDRILDFRRVPPVAGRMVNMTKEIRDVTRDKKLWRTFFISPANNICFYGECSYYCSTEHALCGKPDQIEGSLAAFLPDLSLAKRKTWRNPWRRSYHKRKKAEWEVDPDYCEEVKQTPPYDSSHRILDVMDMTIFDFLMGNMDRHHYETFEKFGNETFIIHLDNGRGFGKYSHDELSILVPLQQCCRIRKSTYLRLQLLAKEEYKLSLLMAESLRGDQVAPVLYQPHLEALDRRLRVVLKAVRDCVERNGLHSVVDDDLDTEHRAASARHDEL
With B1 the “Western blot band migration of beta casein; HsFam20C alone coexpressed in tobacco leaf (FIG. 20, lane 5, '1 human kinase')” value was “In lanes containing beta casein coexpressed with 1 human kinase, 2 human kinases, 1 bovine kinase or 2 bovine kinases the bands are shifted upward on the gel relative to the sample transformed with only beta casein”, the “Western blot band migration of beta casein; HsFam20C coexpressed together with HsFam20A in tobacco leaf (FIG. 19, lanes 3 and 4)” value was “In lanes containing beta casein coexpressed with the human kinases the bands are shifted upward on the gel relative to the sample transformed with only beta casein” and the “Western blot band migration of beta casein; HsFam20C coexpressed together with HsFam20A in tobacco leaf (FIG. 20, lane 8, '2 human kinases')” value was “In lanes containing beta casein coexpressed with 1 human kinase, 2 human kinases, 1 bovine kinase or 2 bovine kinases the bands are shifted upward on the gel relative to the sample transformed with only beta casein”.

B2: recombinant H. sapiens Fam20A expressed from pMOZ12 (protein)
chain: QLRPRERPRGCPCTGRASSLARDSAAAASDPGTIVHNFSRTEPRTEPAGGSHSGSSSKLQALFAHPLYNVPEEPPLLGAEDSLLASQEALRYYRRKVARWNRRHKMYREQMNLTSLDPPLQLRLEASWVQFHLGINRHGLYSRSSPVVSKLLQDMRHFPTISADYSQDEKALLGACDCTQIVKPSGVHLKLVLRFSDFGKAMFKPMRQQRDEETPVDFFYFIDFQRHNAEIAAFHLDRILDFRRVPPTVGRIVNVTKEILEVTKNEILQSVFFVSPASNVCFFAKCPYMCKTEYAVCGNPHLLEGSLSAFLPSLNLAPRLSVPNPWIRSYTLAGKEEWEVNPLYCDTVKQIYPYNNSQRLLNVIDMAIFDFLIGNMDRHHYEMFTKFGDDGFLIHLDNARGFGRHSHDEISILSPLSQCCMIKKKTLLHLQLLAQADYRLSDVMRESLLEDQLSPVLTEPHLLALDRRLQTILRTVEGCIVAHGQQSVIVDGPVEQLAPDSGQANLTSHDEL
B2 was tested, and the “Western blot band migration of beta casein; HsFam20A coexpressed together with HsFam20C in tobacco leaf (FIG. 19, lanes 3 and 4)” value was “In lanes containing beta casein coexpressed with the human kinases the bands are shifted upward on the gel relative to the sample transformed with only beta casein” and the “Western blot band migration of beta casein; HsFam20A coexpressed together with HsFam20C in tobacco leaf (FIG. 20, lane 8, '2 human kinases')” value was “In lanes containing beta casein coexpressed with 1 human kinase, 2 human kinases, 1 bovine kinase or 2 bovine kinases the bands are shifted upward on the gel relative to the sample transformed with only beta casein”.

B3: recombinant B. taurus Fam20C expressed from pMOZ14 (protein)
chain: MLLPKLERSAARPSGEPGCSCAQPAAEAAAPGWAQARGHPGGELEAAASAAGDAGWPNKHTLRILQDFSSDPSSNLTSHSLEKLPPAAEAAEGAPPGQDPGVRRPPDPAHRPLPRDPGPRGPVLPPGLSGDGSLLTRLFQHPLYQVPIPPLTEGDVLFNVNSDIRFNPKAATAENPDWPHEGPEDEFLPTGEAAVDSYPNWLKFHIGINRYELYSRHNPAVGALLQDLGTQKITSVAMKSGGTQLKLIMTFQNYGQALFKPMKQTREQETPPDFFYFSDYERHNAEIAAFHLDRILDFRRVPPVAGRLVNMTKEIRDVTRDKKLWRTFFISPANNVCFYGECSYYCSTEHALCGKPDQIEGSLAAFLPDLALAKRKTWRNPWRRSYHKRKKAEWEVDPDYCEEVRQTPPYDSSHRLLDVMDMTIFDFLMGNMDRHHYETFEKFGNETFIIHLDNGRGFGKHSHDELSILVPLQQCCRIRRSTYLRLQLLAQEEHRLSLLMAEALRADRVAPVLFQPHLEALDRRLRIVLRAVGDCVEKDGLHSVVEDDLGPEHRAAAGRHDEL
With B3 the “Western blot band migration of beta casein; BtFam20C coexpressed together with BtFam20A in tobacco leaf (FIG. 20, lane 7, '2 bovine kinases')” value was “In lanes containing beta casein coexpressed with 1 human kinase, 2 human kinases, 1 bovine kinase or 2 bovine kinases the bands are shifted upward on the gel relative to the sample transformed with only beta casein”.

B4: recombinant B. taurus Fam20A expressed from pMOZ15 (protein)
chain: MHVSSHLGPRVRSRLQPRERPLGCPCARRAASPAPGPAPSAPRRVEPSGGGDPGSKLRALFAHPLYNEPEEPPLLGPEDSLLAGPEALRYYRRKVARWNRRRKMYKEQLNLTSPEPPVQLRQEASWVQFHLGINRHGLYPRSSPVVSKLLQDMRHFPTISADYSQDEKALLGACDCSQIVKPSGVHLKLVLRFSDFGKAMFKPMRQQRDEETPEDFFYFIDFQRHNAEIAAFHLDRILDFRRVPPTVGRLVNVTREILEVTRNEILQSVFFVSPANNVCFFAKCPYMCKTEYAVCGSPHLLEGSLSAFLPSLNLAPRFSMPSPWIRSYSLAGREEWEVNPLYCEAVKQAYPHNSSSRLLNIIDMAIFDFLIGNMDRHHYEMFTKFGEDGFLIHLDNARGFGRHSHDEVSILAPLFQCCRIKRKTLLHLQLLAQADYRLSDVMRESLLEDQLSPVLTEPHLLALDRRLQTVLRTVQDCIEAHGEQSVVADGPVGQWAPDSSRANATSHDEL
For B4, the “Western blot band migration of beta casein; BtFam20A coexpressed together with BtFam20C in tobacco leaf (FIG. 20, lane 7, '2 bovine kinases')” value was “In lanes containing beta casein coexpressed with 1 human kinase, 2 human kinases, 1 bovine kinase or 2 bovine kinases the bands are shifted upward on the gel relative to the sample transformed with only beta casein”.
